Assay results taken from patent publication US20250215098A1 (QYUNS THERAPEUTICS, published 2025).

T1: human IL-36R on HT29 cells, HT29 reporter gene cells, A431 cells and human PBMC (human, UniProt Q9HB29 20-575)
T1 sequence (looked up): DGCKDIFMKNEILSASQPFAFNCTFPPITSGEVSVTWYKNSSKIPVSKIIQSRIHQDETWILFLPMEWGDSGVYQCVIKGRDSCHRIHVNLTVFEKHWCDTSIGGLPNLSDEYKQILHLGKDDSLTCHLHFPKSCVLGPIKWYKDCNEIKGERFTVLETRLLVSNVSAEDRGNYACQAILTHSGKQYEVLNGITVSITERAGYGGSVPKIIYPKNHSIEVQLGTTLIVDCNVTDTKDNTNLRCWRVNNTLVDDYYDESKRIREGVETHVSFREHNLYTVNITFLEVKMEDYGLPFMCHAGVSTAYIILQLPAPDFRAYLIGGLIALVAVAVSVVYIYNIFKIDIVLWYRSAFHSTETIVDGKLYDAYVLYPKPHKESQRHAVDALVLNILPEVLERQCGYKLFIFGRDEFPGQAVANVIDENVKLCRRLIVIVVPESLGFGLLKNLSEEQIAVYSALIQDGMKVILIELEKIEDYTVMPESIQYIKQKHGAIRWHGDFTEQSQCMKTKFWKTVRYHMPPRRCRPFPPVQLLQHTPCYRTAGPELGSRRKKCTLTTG


Molecular target: T1, human IL-36R on HT29 cells, HT29 …
Assay: cell-based or functional assay

| IC50 in inhibiting CXCL-1 release from A431 cells induced by the human IL-36 (α, β, γ) | IC50 in inhibiting CXCL-1 release from HT29 cells induced by the human IL-36 (α, β, γ) | IC50 in inhibiting IL-8 release from A431 cells induced by the human IL-36 (α, β, γ) | IC50 in inhibiting IL-8 release from HT29 cells induced by the human IL-36 (α, β, γ) | IC50 in inhibiting IL-8 release from human PBMC cells induced by the human IL-36β | IC50 in inhibiting STAT3 phosphorylation in HT29 reporter cells induced by human IL-36 (α, β, γ) | Binder |
| --- | --- | --- | --- | --- | --- | --- |
| 4.12 ng/mL | 2.21 ng/mL | 2.89 ng/mL | 1.53 ng/mL | 4.69 ng/mL | 2.16 ng/mL | QX009N (HZD25-54) (antibody, human IgG1, kappa, L234A L235A, V domains shown) VH: EVQLVESGGGLVQPGGSLRLSCAASGIDLSNYAMGWVRQAPGKGLEWVGYISGGGSAYYASWAKGRFTISRDNSKNTLYLQMNSLRAEDTAVYYCARWAIKSYFFGMDLWGQGTLVTVSS VL: DIQMTQSPSSVSASVGDRVTITCQASEYISSYLAWYQQKPGKAPKLLIYQASTLASGVPSRFSGSGSGTDFTLTISSLQPEDFATYYCQTNNAIHTYGGAFGGGTKVEIKR |
| 12.3 ng/mL | 12.3 ng/mL | 11.5 ng/mL | 11.5 ng/mL | 26.6 ng/mL | 15.7 ng/mL | Spesolimab (expressed from the B6 sequence of patent US9023995B2) (antibody, V domains shown) VH: QVQLVQSGAEVKKPGASVKVSCKASGYSFTSSWIHWVKQAPGQGLEWMGEINPGNVRTNYNENFRNKVTMTVDTSISTAYMELSRLRSDDTAVYYCTVVFYGEPYFPYWGQGTLVTVSS VL: QIVLTQSPGTLSLSPGERATMTCTASSSVSSSYFHWYQQKPGQAPRLWIYRTSRLASGVPDRFSGSGSGTDFTLTISRLEPEDAATYYCHQFHRSPLTFGAGTKLEIK |
